Experimental data as given in PMC8764033, “Single-molecule analysis of specificity and multivalency in binding of short linear substrate motifs to the APC/C” (Nature Communications, 2022).

How the values were obtained:
APC/C^Cdh1 = experiment: Ensemble binding of radiolabeled Hsl1 fragments to APC/C^Cdh1 on magnetic beads; parameters: species or system yeast
Text: Supplementary Fig. 2: APC/C activity with tagged substrates a, Methods for analysis of APC/C activity and substrate binding. b, APC/C ubiquitylation assay with ra d io lab e le d f u ll-len g th yS e cu rin , co mpa rin g wild-type APC/CCdh1 an d AP C/ CCdh1 with a GFP ta g o n A p c1 . c, Comparison of activities with APC/CCdh1, using either wild-type Cdh1 or Cdh1 with the N-terminal 2XStrep-Tag II. d, Comparison of activities with APC/CCdh1 and the Hsl1 fragment (667-872) with and without the C-terminal Halo tag. e, Binding of radiolabeled Hsl1 fragments to yeast APC/CCdh1 immobilized on magnetic beads. First lane (Inp, input) indicates the amount of labeled protein added to the beads prior to washing, second lane (+) indicates amount bound, and third lane (-) indicates background binding in absence of APC/CCdh1. f, Ubiquitylation of Halo-tagged Hsl1 fragment with APC/CCdh1 an d A P C/ CCdc20. Experiments we re pe rfo rme d o n ce (b, c) or twice ( d-f). Source data are provided as a Source Dat a file.
(1 picture or pasted object on this page, not shown here)

APC/C^apo = biological target: T1, APC/C^apo (Saccharomyces cerevisiae, UniProt P38042+P53068); experiment: SMOR assay, yeast APC/C^apo (no activator); assay type: binding; settings: Supplementary Table 1, single movie
T1 construct: APC/C was purified from yeast cells; made in house; host or cells: S. cerevisiae W303 strain NHY13 (Cdc16-TAP, Apc1-GFP, cdh1 deleted)
Description: Yeast strains were derivatives of W303 and are listed in Supplementary Table 2. For APC/C purification, we used a strain carrying Cdc16-TAP and lacking Cdh1 (DOM1126); in most experiments, the strain also carried Apc1-GFP (NHY13). Yeast were grown in YPD media to OD600 = 0.8, collected and flash-frozen. Cells were lysed by bead beating in lysis buffer A (50 mM HEPES pH 7.5, 150 mM KCl, 10% glycerol, 0.2% Triton X-100, 63 µM B-glycerophosphate, 48 µM sodium fluoride, 1 µg ml^−1 pepstatin A, 1 µg ml^−1 leupeptin, 1 µg ml^−1 aprotinin, 1 mM PMSF, 1 mM DTT, 0.5 mM EDTA) and APC/C was purified using magnetic IgG beads. The beads were washed using wash buffer A (20 mM HEPES pH 7.5, 150 mM KCl, 10% Glycerol, 0.05% Triton X-100). After incubation with purified Cdh1 or Cdc20, the APC/C was cleaved off the beads with TEV protease in wash buffer A with 0.05% Tween-20 (for single-molecule studies) or 0.05% Triton X-100 (for ensemble assays such as ubiquitylation) and used immediately. […]
Microscopy was performed with a Nikon Eclipse TE2000-E with Perfect Focus with a 100 × 1.49na oil, Apo TIRF DIC N2, 0.13-0.2, WD0.12 objective. Movies were recorded using the Andor iXon DU-897E-CSO. […]

B1: Hsl1^Halo KEN & D: Hsl1 fragment (amino acids 667–872) with C-terminal HaloTag, JF549-labeled (protein)
chain: QNSASKRSLYSLQSISKRSLNLNDLLVFDDPLPSKKPASENVNKSEPHSLESDSDFEILCDQILFGNALDRILEEEEDNEKERDTQRQRQNDTKSSADTFTISGVSTNKENEGPEYPTKIEKNQFNMSYKPSENMSGLSSFPIFEKENTLSSSYLEEQKPKRAALSDITNSFNKMNKQEGMRIEKKIQREQLQKKNDRPSPLKPIQ
modifications: JF549 or JF646 dye covalently bound to the HaloTag; left off: HaloTag, C-terminal, kept | TAP, C-terminal, cleaved
notes: Hsl1 fragment (amino acids 667–872) with C-terminal HaloTag, JF549-labeled
binding to APC/C (in words) (APC/C^Cdh1): HaloTag does not affect ubiquitylation or binding | Dwell Time (in words) (APC/C^apo): no binding
